This note sets out measurements from patent publication US20230192819A1 (TWIST BIOSCIENCE, published 2023).

Where “and” joins values, the source holds several entries; their conditions need not be identical. Identical values can stand only once. Like-named read-outs stand apart in the source and are kept apart here.

For experiment [1], the target named is T1, C52Hg Brazilian variant (Acro) spike protein (SARS-CoV-2, UniProt P0DTC2 16-1213). The experiment is described as follows: SPR (Carterra LSA).
Experiment [2] has as its target T2, C52Hk S. African variant (Acro) spike protein (SARS-CoV-2, UniProt P0DTC2 16-1213). The experiment is described as follows: SPR (Carterra LSA).
Experiment [3] concerns the target T3, Acro S1 spike protein (SARS-CoV-2) (SARS-CoV-2, UniProt P0DTC2 16-685). The experiment is described as follows: SPR (Carterra LSA).
Experiment [4] has as its target T4, S1 variant B.1.1.7: UK (Acro) spike protein (SARS-CoV-2, UniProt P0DTC2 16-1213). The experiment is described as follows: SPR (Carterra LSA).
Experiment [5] deals with T1, C52Hg Brazilian variant (Acro) spike …. The experiment is described as follows: SPR (Carterra LSA); antibody on chip, spike protein as analyte; summary table.
Experiment [6] addresses T2, C52Hk S. African variant (Acro) spike …. The experiment is described as above.
Experiment [7] concerns the target T4, S1 variant B.1.1.7: UK (Acro) spike …. The description is as above.
For experiment [8] the target is unchanged. The experiment is described as follows: SPR (Carterra LSA); […]; 1:1 model; […].
Experiment [9] addresses T2, C52Hk S. African variant (Acro) spike …. The experiment is described as follows: SPR (Carterra LSA); […]; 1:1 model; […].
The target of experiment [10] is T1, C52Hg Brazilian variant (Acro) spike ….
Experiment [11] deals with California Variant W152C_L452R_D614G.
Experiment [12] concerns the target T1, C52Hg Brazilian variant (Acro) spike …. The experiment is described as follows: SPR (Carterra LSA); […]; 1:1 model; […].
Experiment [13] has as its target Delta variant (Acro) spike protein (SARS-CoV-2, UniProt P0DTC2 16-1213).
The target in experiment [14] is T4, S1 variant B.1.1.7: UK (Acro) spike ….
The target in experiment [15] is T3, Acro S1 spike protein (SARS-CoV-2).
Experiment [16] shares this target. The experiment is described as follows: SPR (Carterra LSA); antibody on chip, spike protein as analyte; summary table.
The target is the same in experiment [17]. The experiment is described as follows: SPR (Carterra LSA); […]; 1:1 model; […].

B1: Antibody 1-20 (Fc fusion)
chain: EVQLVESGGGLVQPGGSLRLSCAASGRTFRRYTMGWFRQAPGKEREFVASITSSGVNAYADSVKGRFTISADNSKNTAYLQMNSLKPEDTAVYYCAKEDVGKPFDWGQDTLVTVSS
B1: the binding result in experiment [1], in experiment [2], in [3] and in [4] was “no binding” in each case.

B2: Antibody 1-8 (Fc fusion)
chain: EVQLVESGGGLVQPGGSLRLSCAASGRTLSRYTMGWFRQAPGKEREFVASITSGGTTNYADSVKGRFTISADNSKNTAYLQMNSLKPEDTAVYYCAKEDVGKPFDWGQGTLVTVSS
With B2, the Kd in [5] was 0.321 nM; in experiment [6] it was 1 nM; in experiment [7] it was 2.26 nM; in experiment [8], 2.26 nM; in experiment [9] it was 1 nM; in [10], 2.53 nM and 1.9 nM. Besides, the Kd in experiment [12] is 0.321 nM; in experiment [13], 2.39 nM and 3.18 nM; in experiment [14] it was 3.2 nM; in experiment [15], 2.22 nM and 4.13 nM. Moreover, the koff in experiment [8] was 0.0007 s⁻¹; in [9] it was 0.00057 s⁻¹; in experiment [10], 0.000158 s⁻¹ and 0.00011 s⁻¹; in experiment [12] it was 0.00017 s⁻¹; in experiment [13], 0.000409 s⁻¹ and 0.000318 s⁻¹; in experiment [14], 0.000572 s⁻¹. Also, the koff in [15] is 0.000412 s⁻¹ and 0.000662 s⁻¹. Besides, the kon in experiment [8] was 310000 M⁻¹ s⁻¹; in experiment [9] it was 570000 M⁻¹ s⁻¹; in experiment [10], 62400 M⁻¹ s⁻¹ and 58000 M⁻¹ s⁻¹; in experiment [12], 530000 M⁻¹ s⁻¹; in experiment [13], 171000 M⁻¹ s⁻¹ and 100000 M⁻¹ s⁻¹; in experiment [14], 179000 M⁻¹ s⁻¹. In experiment [15], the on-rate (kon) was 186000 M⁻¹ s⁻¹ and 160000 M⁻¹ s⁻¹. The IC50 in experiment [11] came out at 2.72 nM.

B3: Antibody 1-2 (Fc fusion)
chain: EVQLVESGGGLVQPGGSLRLSCAASGGSEYSYSTFSSFVMGWFRQAPGKERELVASISWSGGHTFYADSVKGRFTISADNSKNTAYLQMNSLKPEDTAVYYCAAYLRGPYYSSFYDSTKYEWGQGTLVTVSS
Take B3: binding in [16] was characterised by a dissociation constant (Kd) of 2.41 nM. Further, in experiment [17], binding was put at a Kd of 2.41 nM, the koff was 0.00053 s⁻¹ and the kon was 220000 M⁻¹ s⁻¹.

B4: Antibody 1-10 (Fc fusion)
chain: EVQLVESGGGLVQPGSSLRLSCAASGGTFSSIGMGWFRQAPGKEREFVAAISWDGGATAYADSVKGRFTISADNSKNTAYLQMNSLKPEDTAVYYCAKEDVGKPFDWGQGTLVTVSS
Turning to B4, the Kd stood at 127 nM in experiment [5]; 13.9 nM in [6]; 1.95 nM in experiment [16]; 0.481 nM in [7]; 0.481 nM in experiment [8]; 1.96 nM in experiment [17]. Also, the Kd in [9] is 13.9 nM; in [12] it was 127 nM; in experiment [13], 7.43 nM and 5.43 nM; in experiment [14] it was 0.33 nM and 0.27 nM; in experiment [15] it was 2.6 nM. For the same molecule, the off-rate (koff) in [8] was 0.00013 s⁻¹; in experiment [17], 0.00053 s⁻¹; in [9], 0.00089 s⁻¹; in [12] it was 0.00081 s⁻¹; in experiment [13] it was 0.000706 s⁻¹ and 0.000516 s⁻¹; in experiment [14] it was 2.54e-05 s⁻¹ and 2.32e-05 s⁻¹. In addition, in experiment [15], the dissociation rate constant (koff) is 0.00053 s⁻¹ and 0.000728 s⁻¹. Also, the kon is 270000 M⁻¹ s⁻¹ in [8]; 270000 M⁻¹ s⁻¹ in experiment [17]; 64000 M⁻¹ s⁻¹ in experiment [9]; 6400 M⁻¹ s⁻¹ in experiment [12]; 95000 M⁻¹ s⁻¹ in experiment [13]; 77000 M⁻¹ s⁻¹ and 86000 M⁻¹ s⁻¹ in experiment [14]. Besides, in [15], the association rate constant (kon) is 280000 M⁻¹ s⁻¹. Also, it took 0.13 nM to reach half-maximal inhibition in [11] (IC50).

B5: Antibody 1-19 (Fc fusion)
chain: EVQLVESGGGLVQPGGSLRLSCAASGFTFSDYAMGWFRQAPGKEREVVARIYWSSANTYYADSVKGRFTISADNSKNTAYLQMNSLKPEDTAVYYCATYGYDSGRYYSWGQGTLVTVSS
Turning to B5, the binding result in experiment [1], in experiment [2], in experiment [3] and in experiment [4] was “no binding” throughout.

B6: Antibody 1-3 (Fc fusion)
chain: EVQLVESGGGLVQPGGSLRLSCAASGTTFRINVMGWFRQAPGKEREFVAGISWTGGSTIYADSVKGRFTISADNSKNTAYLQMNSLKPEDTAVYYCAAFDGYSGSDWGQGTLVTVSS
With B6, the binding result in [1], in [2], in experiment [3] and in [4] was “no binding” each time.

B7: Antibody 1-21 (Fc fusion)
chain: EVQLVESGGGLVQPGGSLRLSCAASGPTFSIYAMGWFRQAPGKERELVAGISWNGGSTNYADSVKGRFTISADNSKNTAYLQMNSLKPEDTAVYYCAAFDGYTGSDWGQGTLVTVSS
B7: the binding result in [1], in [2], in experiment [3] and in experiment [4] was “no binding” in each case.

B8: Antibody 1-11 (Fc fusion)
chain: EVQLVESGGGLVQPGGSLRLSCAASGFTFDDYVMGWFRQAPGKEREFVAVISWTGESTLYADSVKGRFTISADNSKNTAYLQMNSLKPEDTAVYYCAAFDGYSGSDWGQGTLVTVSS
Turning to B8, the dissociation constant Kd in [5] was 4.67 nM; in experiment [6] it was 5 nM; in experiment [9], 5 nM; in experiment [12] it was 4.67 nM. The koff came out at 0.0019 s⁻¹ in experiment [9] and 0.0014 s⁻¹ in [12]. Moreover, the kon in experiment [9] was found to be 380000 M⁻¹ s⁻¹; in experiment [12], 300000 M⁻¹ s⁻¹.

B9: Antibody 1-14 (Fc fusion)
chain: EVQLVESGGGLVQPGGSLRLSCAASGFTPDDYAMGWFRQAPGKEREFVAAINWSGVTTYHYYADSVKGRFTISADNSKNTAYLQMNSLKPEDTAVYYCASDESDAANWGQGTLVTVSS
Regarding B9, the binding result in experiment [1], in experiment [2], in experiment [3] and in experiment [4] was “no binding” in each case.

B10: Antibody 1-16 (Fc fusion)
chain: EVQLVESGGGLVQPGGSLRLSCAASGRTYAMGWFRQAPGKERELVAEITAGGSTYYADSVKGRFTISADNSKNTAYLQMNSLKQEDTAVYYCAVDGPFGWGQGTLVTVSS
For the molecule B10, the equilibrium dissociation constant (Kd) is 4.79 nM in experiment [5], 1.06 nM in experiment [7], 1.06 nM in experiment [8] and 4.79 nM in experiment [12]. The results for the off-rate constant (koff) in experiment [8] and in experiment [12] were 0.00037 s⁻¹ and 0.0034 s⁻¹, respectively. In addition, the kon came out at 350000 M⁻¹ s⁻¹ in experiment [8] and 710000 M⁻¹ s⁻¹ in experiment [12].

B11: Antibody 1-17 (Fc fusion)
chain: EVQLVESGGGLVQPGGSLRLSCAASGRTIVPYTMGWFRQAPGKEREEVAAISTGGGGTYYADSVKGRFTISADNSKNTAYLQMNSLKPEDTAVYYCAVDGPFGWGQGTLVTVSS
B11: the Kd in experiment [16] came out at 5.15 nM. In experiment [17], this molecule yielded a dissociation constant (Kd) of 5.15 nM, a koff of 0.0017 s⁻¹ and a kon of 330000 M⁻¹ s⁻¹.

B12: Antibody 1-13 (Fc fusion)
chain: EVQLVESGGGLVQPGGSLRLSCAASGRTTFSSYTMGWFRQAPGKEREFVASITRSGVLNYADSVKGRFTISADNSKNTAYLQMNSLKPEDTAVYYCAKEDVGKPFDWGQGTLVTVSS
On to B12, for which the Kd was determined as 18.2 nM in [16], 5.18 nM in experiment [7], 5.18 nM in experiment [8] and 18.2 nM in experiment [17]. For the same molecule, the koff in experiment [8] amounted to 0.00088 s⁻¹; in [17], 0.0031 s⁻¹. The kon in experiment [8] and in experiment [17] was 170000 M⁻¹ s⁻¹ in each case.

B13: Antibody 1-6 (Fc fusion)
chain: EVQLVESGGGLVQPGGSLRLSCAASGSISSINVMGWFRQAPGKEREWMGVMAYDGSTYYADSVKGRFTISADNSKNTAYLQMNSLKPEDTAVYYCAAFDGYSGSDWGQGTLVTVSS
For the molecule B13, the binding result in experiment [1], in experiment [2], in [3] and in experiment [4] was “no binding” throughout.

As a reminder, the Kd is a measure of binding affinity in units of concentration. Read a high Kd as lower affinity. For orientation: koff means the first-order rate constant of dissociation. The term kon denotes the rate constant with which the complex forms. High values mean faster complex formation, low ones slower complex formation. Broadly, the IC50 is the concentration that inhibits the measured activity by half.
